Source: patent US20050169917A1

B1: OFQ11 (peptide)
peptide: FGGFTGARKSA
B2: synthetic OFQ17 with R8K (peptide)
peptide: FGGFTGAKKSARKLANQ
B3: synthetic OFQ17 with K13C (peptide)
peptide: FGGFTGARKSARCLANQ

Each binder was assayed against Orphanin FQ receptor, normal (NT), expressed in Cos-7 cells (UniProt P35370) (assay: inhibition of [125I] Y14-OFQ17 binding, Cos-7 cells transfected with OFQR).

In order of falling IC50:
1. B1  5000 nM
2. B2  0.1 nM
3. B3  0.1 nM
